# Measurements taken from publication PMC4739766 (eLife, 2015).
# T1: human p75^NTR death domain (330–427) (human), P08138
# T1 chain: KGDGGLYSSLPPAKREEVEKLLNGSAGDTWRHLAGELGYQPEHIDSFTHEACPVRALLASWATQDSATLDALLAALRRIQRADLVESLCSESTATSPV
# T2: p75^NTR DD tagged with EGFP(A206K) in its C-terminus (human)
# T2 chain: T1 chain
# T3: human RhoGDI (2–204) (human, UniProt P52565 2-204)
# T3 construct: 15N- or 13C,15N-labelled in some NMR samples; source: E. coli SoluBL21 (DE3), purified (Ni-NTA, gel filtration Superdex 75 and/or ion exchange)
# T3 sequence (looked up): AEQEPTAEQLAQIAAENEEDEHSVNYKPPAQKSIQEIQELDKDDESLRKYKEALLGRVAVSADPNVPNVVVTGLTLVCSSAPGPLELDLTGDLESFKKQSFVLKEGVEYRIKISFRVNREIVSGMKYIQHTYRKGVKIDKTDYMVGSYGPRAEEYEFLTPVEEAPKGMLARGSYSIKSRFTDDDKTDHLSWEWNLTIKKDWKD
# B1: human p75^NTR death domain (330–427), P08138 330-427 (domain or fragment)
# chain: T1 chain
# B2: p75^NTR DD tagged with EGFP(A206K) in its C-terminus (domain or fragment)
# chain: T1 chain
# modifications: here or on the partner: C-terminal EGFP(A206K) carrier left out; limits of this fusion are not given, so the paper's own DD construct (330-427) is used / C-terminal EGFP(A206K) carrier left out; limits of this fusion are n
# B3: human p75^NTR death domain (330–427) (domain or fragment, UniProt P08138 330-427, looked up)
# chain: T1 chain
# notes: p75 neurotrophin receptor (NGFR, TNFRSF16), human, death domain, residues 330-427; 15N- or 13C,15N-labelled in some NMR samples; Monomer or dimer depending on the buffer; also called p75^NTR DD; DD; source: E. coli SoluBL21 (DE3), purified (Ni-NTA, gel filtration Superdex 75 and/or ion exchange)
# What was measured:
# RhoA (Homo sapiens) = RhoA (Homo sapiens) (UniProt P61586); settings: cited from earlier work
# [1] = biological target: human p75^NTR death domain (330–427) (human) (UniProt P08138); assay: SPR; p75NTR DD-His captured on NTA sensor chip via Ni2+; BIAcore T200, 22°C; 10 mM HEPES, 50 mM NaCl, 0.005% Surfactant P20, 0.02% BSA, pH 7.0; kinetic analysis, one binding site model
# [2] = biological target: T1, human p75^NTR death domain (330–427) …; assay: dynamic light scattering; p75NTR DD ~0.2 mM in phosphate buffer, pH 7.0, 22°C; apparent hydrodynamic radius; settings: remark: other sources report otherwise
# [3] = biological target: T2, p75^NTR DD tagged with EGFP(A206K) in …; assay: FRET or BRET; homo-FRET fluorescence anisotropy of p75NTR DD-EGFP diluted serially in 50 mM phosphate buffer pH 7.0, room temperature; fit to a monomer-dimer equilibrium; apparent; dimer to monomers; settings: remark: other sources report otherwise
# [4] = biological target: T4, human RIP2 CARD (434–539) (human, UniProt O43353 434-539); assay: SPR; p75NTR DD-His captured on NTA sensor chip via Ni2+; BIAcore T200, 22°C; 10 mM HEPES, 50 mM NaCl, 0.005% Surfactant P20, 0.02% BSA, pH 7.0; kinetic analysis, one binding site model; settings: both partners purified
# T4 construct: RIP2 kinase, human, caspase recruitment domain with C-terminal tail, residues 434-539; The results speak of a C-terminal tail Leu524-Met540 and of 107 amino acids, the methods of residues 434-539; also called RIP2 CARD (including C-terminal tail); source: E. coli SoluBL21 (DE3), purified (Ni-NTA, gel filtration Superdex 75 and/or ion exchange)
# human RhoGDI (2–204) = biological target: T3, human RhoGDI (2–204); assay: as above; settings: both partners purified
# T4 sequence (O43353 434-539): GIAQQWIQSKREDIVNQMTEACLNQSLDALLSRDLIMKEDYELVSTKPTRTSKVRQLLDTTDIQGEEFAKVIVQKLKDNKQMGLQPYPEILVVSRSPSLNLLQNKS
# RhoA (Homo sapiens), sequence (P61586 1-190): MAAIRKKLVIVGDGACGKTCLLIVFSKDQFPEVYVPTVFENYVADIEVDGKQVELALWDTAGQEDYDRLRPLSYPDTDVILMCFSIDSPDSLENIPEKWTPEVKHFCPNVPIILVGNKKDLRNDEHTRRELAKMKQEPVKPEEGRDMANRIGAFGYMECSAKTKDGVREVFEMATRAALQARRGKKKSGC
molecule,measurement,setting,value
RhoGDI (from UniProt P52565),Kd,RhoA (Homo sapiens),170 nM
RIP2 CARD ΔC mutant lacking the C-terminal tail (domain or fragment),Kd,[1],58.7 nM
B1,stoichiometry N,[2],2
B2,Kd,[3],49000 nM
B3,Kd,[4],4.67 ± 0.7 nM
same,koff,[4],0.00332 s⁻¹
same,kon,[4],720000 ± 340000 M⁻¹ s⁻¹
same,Kd,human RhoGDI (2–204),827 ± 338 nM
same,koff,human RhoGDI (2–204),0.05 s⁻¹
same,kon,human RhoGDI (2–204),60000 ± 10000 M⁻¹ s⁻¹
